The source of these data is patent publication US7341836B2, “Modified cyclic nucleotide gated ion channels” (The Regents of the University of Colorado, priority 2001, dated 2008).

One assay has as its target T1, PDE II (Homo sapiens, UniProt O00408).
T1 construct: host or cells: heterologously expressed human PDE; human heart
Particulars: read-out: IC50, PDE II; cited from earlier work.

Assay [1] relates to PDE activity in GH4C1 cells. Description: Effect of PDE inhibitors, forskolin and VIP on cAMP levels (Ca2+ influx through CNG channels). The class given is cell-based, rat. Particulars: basal cAMP; C460W/E583M channels; inhibitor concentration (μM). The protocol: To further test the utility of this approach, PDE activity in excitable GH4C1 pituitary cells was examined. In all of the experiments shown (See, FIGS. 13-14, and Table 2), 1 μM nimodipine was added at time zero to block Ca^2+ influx though voltage-gated Ca^2+ channels (triggered by membrane depolarization due to Ca^2+ and Na^+ influx through CNG channels). […] FIGS. 13 and 14 each depict experiments done on a single batch of cells. As before, similar results were obtained on three other batches. In the experiments that produced the data shown in Table 2, cAMP concentrations were monitored using Ca^2+ influx through C460W/E583M channels. […] Either 100 μM IBMX or vehicle (-IBMX; control) were added at time zero. Then, 50 μM forskolin were added at 180 seconds d(ΔF/F0)/dt, which is proportional to the Ca^2+ influx rate, was estimated as described in the Examples. Data are provided as mean±standard error. IBMX or vehicle was added at 60 seconds (first arrow in FIG. 13). Either 10 μM forskolin or 100 nM VIP were added at 240 seconds (second arrow in FIG. 13). In the absence of IBMX, large forskolin or VIP-induced increases in Ca^2+ influx were observed. […] This level of basal AC activity was quite different from that observed in HEK-293 cells (See, FIGS. 9 and 10). 1 μM nimodipine was added at time 0 to block endogenous voltage-gated Ca^2+ channels.
To identify the PDE family or families that regulate the local cAMP concentration in GH4C1 cells, cAMP accumulation was monitored in the presence and absence of PDE inhibitors (See, Table 2). Again, the high cAMP affinity C460W/E583M channels were used. PDE inhibitors were added at 60 s. Although the addition of IBMX alone triggered Ca^2+ influx, 10 μM forskolin were added at 240 s as a positive control for CNG channel activity. […] This PDE is likely to have a low Km for cAMP because it is capable of regulating cAMP at concentrations too low for the WT or Δ61-90/C460W/E583M channels to detect. Thus, it is contemplated that a Ca^2+-CaM stimulated PDE (type I) is primarily responsible for controlling basal cAMP signals in GH4C1 cells.
In addition, PDE activity was monitored using Δ61-90/C460W/E583M channels to detect changes in cAMP concentration (See, FIG. 14). PDE inhibitors and forskolin were added as described above. With this construct, it was not possible to observe changes in cAMP concentration due to inhibition of PDE activity alone. […] Inhibitors specific to other PDE types had no effect on the forskolin-induced Ca^2+ influx (data not shown). […] It is contemplated that Ca^2+ influx through the C460W/E583M channels was saturated at cAMP concentrations below the Km for this PDE. Thus, it is contemplated that there are two different PDE types that regulate local cAMP signals in GH4C1 cells: a low Km, 8-methoxymethyl-IBMX sensitive PDE (type I); and a high Km, RO-20-1724-, rolipram-sensitive PDE (type IV).
GH4C1 rat pituitary cells (ATCC) were maintained in 13 mL Ham's F-10 medium (Life Technologies) supplemented with 14.3 mM NaHCO3, 15% donor horse serum (Gemini), and 2.5% fetal bovine serum, pH 6.8, in 75 cm^2 flasks at 37° C. in a humidified atmosphere of 95% air and 5% CO2. Cells were split weekly (1:4) and washed with fresh medium twice weekly. Cells were plated at ˜60% confluence in 100 mm culture dishes twenty-four hours prior to infection with the CNG-channel-encoding adenovirus constructs (multiplicity of infection=50 plaque forming units per cell). Forty-eight hours post-infection cells were detached, resuspended in serum-containing medium, and assayed within 12 hours.
In this Example, experiments conducted to examine the response of excitable GH4C1 pituitary cells to stimulation by either forskolin or the hormone vasoactive intestinal peptide (VIP), in the presence of absence of PDE inhibitors are described. […]

The next assay has as its system PDE III. Particulars: cited from earlier work.
Assay [2] concerns rat olfactory CNG channel α subunit. Description: Excised inside-out patch recordings, cyclic nucleotide dose-response of CNG channel constructs. Particulars: for Imax^cGMP/Imax^cAMP: current at saturating cGMP divided by current at saturating cAMP. In kind it is biochemical. As for the experimental part: As described in greater detail herein, the effects of modifications to CNG channels were assessed using the Hill equation, I/Imax=[cNMP]^N/([cNMP]^N+K1/2^N), where I/Imax is the fraction of maximal current, cNMP represents cyclic nucleotide, K1/2 is the concentration that gives half-maximal current, and N is the Hill coefficient, an index of cooperativity. I/Imax^cGMP/Imax^cAMP is the current induced by saturating cGMP divided by the current induced by saturating cAMP. Data (mean±standard deviation of three experiments) were obtained from excised membrane patches using standard patch clamp techniques.
To assess the cyclic nucleotide sensitivity of different CNG channel constructs, excised, inside-out patch recordings were made at room temperature (20-21° C.) using an Axopatch-200A patch clamp amplifier (Axon Instruments Inc.). Pipettes were pulled from borosilicate glass and heat polished. Pipettes were lowered onto the cells and gigaohm seals were formed. Patches were excised by shearing cells from the pipette with a jet of liquid. Ionic currents were elicited by 250 ms pulses to membrane potentials of +50 and −50 mV from a holding potential of 0 mV. Current records were sampled at five times the filter setting and stored on an IBM compatible computer. Records were corrected for errors due to series resistance (pipette resistance was 4.1 ±0.1 MΩ). Both the pipette and bath solutions contained (mM): 130 NaCl, 2 HEPES, 0.02 EDTA, and 1 EGTA, pH 7.6. Cyclic nucleotide-induced currents were obtained from the difference between currents in the presence and absence of cyclic nucleotides. Dose response curves for cAMP and cGMP were obtained at +50 and −50 mV in the same patch. The effects of the modifications were assessed using the Hill equation, I/Imax=[cNMP]^N/([cNMP]^N+K1/2^N), where I/Imax is the fraction of maximal current, cNMP represents cyclic nucleotide, K1/2 is the concentration that gives half-maximal current, and N is the Hill coefficient, an index of cooperativity. K1/2 and N for cAMP were 36±5 μM, 10±2 μM, 1.0±0.3 μM, and […] for WT, E583M, C460/E583M, and Δ61-90/C460W/E583M channels, respectively (See, Rich et al., J. Gen. Physiol. [2001], supra).
The cyclic nucleotide sensitivity of the C460W/E583M CNG channel was assessed in excised, inside-out patches as known in the art (See, Rich et al. [2001], supra). K1/2 and N were 1.1±0.3 μM and 2.1±0.4 at +50 mV; and 1.0±0.3 μM and 2.0 ±0.3 at −50 mV (n=11). With these values, the cAMP concentration could be calculated from currents measured in perforated patch experiments (Rich et al. Proc. Natl. Acad. Sci. [2001], supra).

Assay [3] relates to HEK-293 cells expressing CNG channels. The assay can be described thus: Forskolin-induced cAMP accumulation monitored by Ca2+ influx (fura-2) through expressed CNG channels. Particulars: 100 μM IBMX; forskolin 0-50 μM. The class given is cell-based, human. The protocol: Next, experiments were conducted to assess the ability of each channel construct to detect increases in local cAMP concentration. Changes in cAMP concentration were detected using fura-2 to monitor Ca^2+ influx through CNG channels, as described in the Examples. Ca^2+ influx induced by different concentrations of forskolin, an AC activator, in the presence of 100 μM IBMX, a nonselective PDE inhibitor was measured. This approach allowed comparisons to be made between the cAMP sensitivities of the different channels to changes in cAMP, regardless of variations in expression levels between experiments. In HEK-293 cells expressing the WT channel, addition of forskolin was followed by a brief delay and an increase in Ca^2+ influx (See, FIG. 7, Panel A). The delay decreased and the rate of Ca^2+ influx increased in a dose-dependent manner. Neither effect was saturated at 50 μM forskolin. In cells expressing the E583M channel, addition of forskolin was also followed by a brief delay and an increase in Ca^2+ influx (FIG. 7, Panel B). As with the WT channel, the delay and the initial rate of Ca^2+ influx were dose-dependent. […] In cells expressing the Δ61-90/C460W/E583M channel, addition of forskolin caused similar increases in Ca^2+ influx as the E583M channel, including saturation of the delay and rate of influx at 20 μM (compare FIG. 7, Panel B with FIG. 7, Panel D). The increased response of the modified channels to forskolin treatment is consistent with the apparent cAMP affinities measured in excised patches in the absence of Ca^2+-CaM (C460W/E583M>E583M˜Δ61-90/C460W/E583>WT channels). There are several factors that may have contributed to the apparent lack of a Ca^2+-CaM effect on the channels.
Briefly, HEK-293 were maintained in MEM (Life Technologies Inc.) supplemented with 26.2 mM NaHCO3, 10% (v/v) fetal bovine serum (Gemini), penicillin (50 μg/mL), and streptomycin ([…]), pH 7.0, at 37° C. in a humidified atmosphere of 95% air and 5% CO2. Cells were plated at ˜60% confluence in 100 mm culture dishes twenty-four hours prior to infection with the CNG-channel-encoding adenovirus constructs (multiplicity of infection=10 plaque forming units per cell). […] Twenty-four hours post-infection cells were detached with phosphate-buffered saline containing 0.03% EDTA, resuspended in serum-containing medium, and assayed within 12 hours.
A general note: cAMP levels reflect the balance of adenylyl cyclase and phosphodiesterase activity.

“And” between values parts separate entries of the source, which are not always exact repeats. Equal values may be shown once.

T1 sequence (O00408 whole entry): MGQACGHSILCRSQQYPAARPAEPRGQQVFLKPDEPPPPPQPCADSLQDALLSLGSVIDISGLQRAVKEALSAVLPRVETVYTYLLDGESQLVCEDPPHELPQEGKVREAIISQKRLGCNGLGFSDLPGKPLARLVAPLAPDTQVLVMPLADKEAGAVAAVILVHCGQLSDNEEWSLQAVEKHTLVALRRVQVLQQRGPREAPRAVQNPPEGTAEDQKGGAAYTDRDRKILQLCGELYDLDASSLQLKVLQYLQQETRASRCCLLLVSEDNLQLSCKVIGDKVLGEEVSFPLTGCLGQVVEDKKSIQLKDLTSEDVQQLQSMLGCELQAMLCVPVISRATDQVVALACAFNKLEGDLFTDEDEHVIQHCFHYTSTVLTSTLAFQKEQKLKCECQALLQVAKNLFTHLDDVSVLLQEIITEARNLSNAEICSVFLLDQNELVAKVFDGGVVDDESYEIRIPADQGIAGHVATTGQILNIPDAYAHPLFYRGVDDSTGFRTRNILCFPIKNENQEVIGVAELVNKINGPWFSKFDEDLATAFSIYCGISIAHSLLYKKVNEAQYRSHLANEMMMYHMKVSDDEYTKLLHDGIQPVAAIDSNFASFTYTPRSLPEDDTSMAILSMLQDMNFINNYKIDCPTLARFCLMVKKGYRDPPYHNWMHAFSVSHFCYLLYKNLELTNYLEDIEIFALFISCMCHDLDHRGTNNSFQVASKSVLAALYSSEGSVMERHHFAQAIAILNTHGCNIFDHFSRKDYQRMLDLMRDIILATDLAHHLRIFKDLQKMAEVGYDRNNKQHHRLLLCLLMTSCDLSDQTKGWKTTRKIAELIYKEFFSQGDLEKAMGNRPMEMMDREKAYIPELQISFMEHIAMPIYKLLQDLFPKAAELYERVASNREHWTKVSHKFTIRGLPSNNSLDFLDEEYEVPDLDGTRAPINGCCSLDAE

As to `COc1cc2c(cc1OC)-c1c/c(=N\c3c(C)cc(C)cc3C)n(C)c(=O)n1CC2` [Trequinsin], the IC50 (in general, the concentration needed to halve the response being measured) on PDE II was 500 to 2000 nM; in the assay with PDE III, 0.3 nM. Further, the “d(ΔF/F0)/dt” value in assay [1] turned out to be 0 s⁻¹.

B1: Δ61-90/C460W/E583M: modified rat olfactory cyclic nucleotide-gated ion channel containing the Δ61-90/C460W/E583M mutation, SEQ ID NO:7 (protein, listed as Rattus norvegicus)
chain: MMTEKSNGVKSSPANNHNHHPPPSIKANGKDDHRAGSRPQSVAADDDTSPELQRLAEMDTPRPDSFLERFRGPELQTVTTHQGDDKGGKDGEGKGTKKKFELFVLDPAGDWYYRWLFVIAMPVLYNWCLLVARACFSDLQRNYFVVWLVLDYFSDTVYIADLIIRLRTGFLEQGLLVKDPKKLRDNYIHTLQFKLDVASIIPTDLIYFAVGIHSPEVRFNRLLHFARMFEFFDRTETRTSYPNIFRISNLVLYILVIIHWNACIYYVISKSIGFGVDTWVYPNITDPEYGYLAREYIYCLYWSTLTLTTIGETPPPVKDEEYLFVIFDFLIGVLIFATIVGNVGSMISNMNATRAEFQAKIDAVKHYMQFRKVSKDMEAKVIKWFDYLWTNKKTVDEREVLKNLPAKLRAEIAINVHLSTLKKVRIFQDWEAGLLVELVLKLRPQVFSPGDYICRKGDIGKEMYIIKEGKLAVVADDGVTQYALLSAGSCFGEISILNIKGSKMGNRRTANIRSLGYSDLFCLSKDDLMEAVTEYPDAKKVLEERGREILMKMGLLDENEVAASMEVDVQEKLEQLETNMDTLYTRFARLLAEYTGAQQKLKQRITVLETKMKQNHEDDYLSDGINTPEPTAAE
As to B1, the figures for the “Imax^cGMP/Imax^cAMP” value in assay [2] (+50 mV) and in assay [2] (−50 mV) were 0.16 ± 0.08 and 0.09 ± 0.06, respectively. The “current elicited by saturating cGMP as % of the current elicited by saturating cAMP” value in assay [2] (excised patches) was 16% and < 20%. For the same molecule, the “forskolin concentration at which delay and rate of Ca2+ influx saturated” value in assay [3] is 20 µM.
